Experimental data reported in PMC9850916 (Biochemistry, 2022).

How the values were obtained:
Assay in all cases: SPR
[1] = molecular target: IgG1-Fc fragment produced by Expi293 cells (human, N-glycosylated)
[2] = molecular target: maltose-binding protein-linked IgG1-Fc fragment ( | human, N-glycosylated Fc)
[3] = molecular target: papain-digested Fc fragment of commercially available rituximab (human, N-glycosylated)

Kd [1]: 1680 nM
koff [1]: 0.0802 s⁻¹
kon [1]: 47800 M⁻¹ s⁻¹
Kd [2]: 3470 nM
koff [2]: 0.0635 s⁻¹
kon [2]: 18400 M⁻¹ s⁻¹
Kd [3]: 1660 nM
koff [3]: 0.0721 s⁻¹
kon [3]: 43900 M⁻¹ s⁻¹
B1: mutant human FcγRIIIa (V158) ectodomain (amino acid residues 1–175) with nine amino acid mutations a (receptor)
chain: RTEDLPKAEVILEPQWNRVLEKDSVTLKCRGAYSPEDNSTQWFHNESLISSQASSYLIDAATVDDSGEYRCQTSLSTLSDPVQLEVHIGWLLLQAPRWEFKEGDPIHLRCHSWKNTALHKVTYLQNGKGRKYFHHNSDFYIPKATLKDSGSYSCRGLVGSKNVSSETVNITITQG
